Numbering of substitutions follows the chain as printed. In names and notes the source's numbering stands.
B1: F406Y (protein)
chain: GFGDVGALESLRGNADLAYILSMEPCGHCLIINNVNFCRESGLRTRTGSNIDCEKLRRRFSSLHFMVEVKGDLTAKKMVLALLELARQDHGALDCCVVVILSHGCQASHLQFPGAVYGTDGCPVSVEKIVNIFNGTSCPSLGGKPKLFFIQACGGEQKDHGFEVASTSPEDESPGSNPEPDATPFQEGLRTFDQLDAISSLPTPSDIFVSYSTFPGFVSWRDPKSGSWYVETLDDIFEQWAHSEDLQSLLLRVANAVSVKGIYKQMPGCFNYLRKKLFFKTSASRA
B2: N405Qco (protein, UniProt P55211 1-416, looked up, variant N405Q)
chain: MDEADRRLLRRCRLRLVEELQVDQLWDALLSRELFRPHMIEDIQRAGSGSRRDQARQLIIDLETRGSQALPLFISCLEDTGQDMLASFLRTNRQAAKLSKPTLENLTPVVLRPEIRKPEVLRPETPRPVDIGSGGFGDVGALESLRGNADLAYILSMEPCGHCLIINNVNFCRESGLRTRTGSNIDCEKLRRRFSSLHFMVEVKGDLTAKKMVLALLELAQQDHGALDCCVVVILSHGCQASHLQFPGAVYGTDGCPVSVEKIVNIFNGTSCPSLGGKPKLFFIQACGGEQKDHGFEVASTSPEDESPGSNPEPDATPFQEGLRTFDQLDAISSLPTPSDIFVSYSTFPGFVSWRDPKSGSWYVETLDDIFEQWAHSEDLQSLLLRVANAVSVKGIYKQMPGCFQFLRKKLFFKTS
modifications: codon-optimized; in iC9 construct
B3: D330A (protein)
chain: B1 chain with D196A, Y272F
B4: D330E (protein)
chain: B1 chain with D196E, Y272F
B5: F404T (protein)
chain: B1 chain with F270T, Y272F
B6: S307A (protein)
chain: B1 chain with S173A, Y272F
B7: F404W (protein)
chain: B1 chain with F270W, Y272F
B8: N405F (protein)
chain: B1 chain with N271F, Y272F
B9: F406T (protein)
chain: B1 chain with Y272T
B10: D315A (protein)
chain: B1 chain with D181A, Y272F
B11: A316G (protein)
chain: B1 chain with A182G, Y272F
B12: F319W (protein)
chain: B1 chain with F185W, Y272F
B13: Y153A (protein)
chain: B1 chain with Y19A, Y272F
B14: Y153F (protein)
chain: B1 chain with Y19F, Y272F
B15: C403A (protein)
chain: B1 chain with C269A, Y272F
B16: 316ATPF^319AVPI (SMAC/Diablo) (protein, UniProt P55211 1-416, looked up, variant T317V F319I)
chain: B2 chain with T317V, F319I, Q405N
B17: T317C (protein)
chain: B1 chain with T183C, Y272F
B18: P318A (protein)
chain: B1 chain with P184A, Y272F
B19: F319A (protein)
chain: B1 chain with F185A, Y272F
B20: C403S (protein)
chain: B1 chain with C269S, Y272F
B21: C403T (protein)
chain: B1 chain with C269T, Y272F
B22: N405A (protein)
chain: B1 chain with N271A, Y272F
B23: N405T (protein)
chain: B1 chain with N271T, Y272F
B24: L329K (protein)
chain: B1 chain with L195K, Y272F

System: chimeric Caspase-9 polypeptide
Assay: Caspase-9 mutant classes and basal activity (Table 5)
Format: cell-based
Details: Caspase-9 mutant class; basal (ligand-independent) signaling compared with unmodified chimeric Caspase-9
From the text: Even though homo-dimerization of wild-type initiator Caspase-9 is energetically unfavorable, making them mostly monomers in solution [14-16], the low-level inherent basal activity of unprocessed Caspase-9 [15, 17] is enhanced in the presence of the Apaf-1-based “apoptosome”, its natural allosteric regulator [6]. Moreover, supra-physiological expression levels and/or co-localization could lead to proximity-driven dimerization, further enhancing basal activation. The modified cells of the present application may comprise nucleic acids coding for a chimeric Caspase-9 polypeptide having lower basal signaling activity. Polynucleotides comprising Caspase-9 mutants with lower basal signaling may be expressed in the modified cells used for cell therapy herein. In these examples, the modified cells may include a safety switch, comprising a polynucleotide encoding a lower basal signaling chimeric Caspase-9 polypeptide. In the event of an adverse event following administration of the modified cells comprising the chimeric signaling polypeptides or chimeric antigen receptors herein, Caspase-9 activity may be induced by administering the dimerizer to the patient, thus inducing apoptosis and clearance of some, or all of the modified cells. In some examples, the amount of dimerizer administered may be determined as an amount designed to remove the highest amount, at least 80% or 90% of the modified cells. In other examples, the amount of dimerizer administered may be determined as an amount designed to remove only a portion of the modified cells, in order to alleviate negative symptoms or conditions, while leaving a sufficient amount of therapeutic modified cells in the patient, in order to continue therapy. Methods for using chimeric Caspase-9 polypeptides to induce apoptosis are discussed in PCT Application Number PCT/US2011/037381 by Malcolm K. Brenner et al., titled Methods for Inducing Selective Apoptosis, filed May 20, 2011, and in U.S. patent application Ser. No. 13/112,739 by Malcolm K. Brenner et al., titled Methods for Inducing Selective Apoptosis, filed May 20, 2011, issued Jul. 28, 2015 as U.S. Pat. No. 9,089,520. Chimeric caspase polypeptides having modified basal activity are discussed in PCT Application Serial Number PCT/US2014/022004 by David Spencer et al., titled Modified Caspase Polypeptides and Uses Thereof, filed Mar. 7, 2014, published Oct. 9, 2014 as WO2014/164348, and in U.S. patent application Ser. No. 13/792,135 by David Spencer et al., titled Modified Caspase Polypeptides and Uses Thereof, filed Mar. 7, 2014; and in U.S. patent application Ser. No. 14/640,553 by Spencer et al., filed Mar. 6, 2015. Methods for inducing partial apoptosis of the therapeutic modified cells are discussed in PCT Application Number PCT/US14/040964 by Kevin Slawin et al., titled Methods for Inducing Partial Apoptosis Using Caspase Polypeptides, filed Jun. 4, 2014, published Dec. 11, 2014 as WO2014/197638, and in U.S. patent application Ser. No. 14/296,404 by Kevin Slawin et al., titled Methods for Inducing Partial Apoptosis Using Caspase Polypeptides, filed Jun. 4, 2014. These patent applications and publications are all incorporated by reference herein in their entireties.

Sequence of chimeric Caspase-9 polypeptide (P62942 2-108 F37V limits assumed): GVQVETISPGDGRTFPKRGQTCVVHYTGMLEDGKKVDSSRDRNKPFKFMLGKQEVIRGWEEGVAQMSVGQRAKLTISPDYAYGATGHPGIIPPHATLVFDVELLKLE

Row | Molecule | Basal Activity
1 | B1 | Decreased
2 | B2 | Decreased
3 | B3 | Decreased
4 | B4 | Decreased
5 | B5 | Decreased
6 | B6 | Decreased
7 | B7 | Decreased
8 | B8 | Decreased
9 | B9 | Decreased
10 | B10 | Decreased
11 | B11 | Decreased
12 | B12 | Decreased
13 | B13 | Decreased
14 | B14 | Decreased
15 | B15 | Similar
16 | B16 | Similar
17 | B17 | Similar
18 | B18 | Similar
19 | B19 | Similar
20 | B20 | Similar
21 | B21 | Similar
22 | B22 | Similar
23 | B23 | Increased
24 | B24 | Increased

Same assay, conditions: Caspase-9 mutant class; ligand IC50 compared with unmodified chimeric Caspase-9

Row | Molecule | IC50
25 | B1 | higher IC50
26 | B2 | higher IC50
27 | B3 | higher IC50
28 | B4 | higher IC50
29 | B5 | much higher
30 | B6 | much higher
31 | B7 | much higher
32 | B8 | much higher
33 | B9 | much higher
34 | B10 | much higher
35 | B11 | much higher
36 | B12 | much higher
37 | B13 | much higher
38 | B14 | much higher
39 | B15 | Similar
40 | B16 | Similar
41 | B17 | Similar
42 | B18 | Similar
43 | B19 | Similar
44 | B20 | Similar
45 | B21 | Similar
46 | B22 | Similar

From patent US20210147507A1, “METHODS TO AUGMENT OR ALTER SIGNAL TRANSDUCTION” (Bellicum Pharmaceuticals, Inc., priority 2017, published 2021)
